T1: cleaved amphiregulin (cell-associated transmembrane stalk left after TACE/ADAM17 cleavage of human AREG) (human, UniProt P15514 188-252)
T1 construct: Endogenous protein on MCF7 cells and in formalin-fixed human tumor tissue; also called cleaved AREG; cell surface cleaved AREG
T1 sequence: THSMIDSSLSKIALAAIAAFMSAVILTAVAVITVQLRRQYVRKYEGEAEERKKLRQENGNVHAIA

T2: peptide representing uncleaved AREG (human)
T2 construct: also called full length AREG peptide; intact AREG
T2 peptide: SMKTHSMIDSSLSKIAC

B1: 1A3 conjugated with pHrodo iFL Red dye (antibody, V domains shown)
VH: QSVKESEGRLVTPGTPLRLTCTVAGYSLSRYHMCWVRQAPGKGLEWIGMIGGSGRTDYASWAKGRFTISKTSTTVDLKITSPTTEDTATYFCSTVYTDSDGDFWGPGTLVTVSS
VL: ELDMTQTPSSKSVPVGGTVTINCQASESVYSNDRLAWFQQKPGQPPKLLIYYASTLASGVPSRFKGSGSGTQFTLTISDLECADAATYYCQSCYDMSSYGVAFGGGTELEIL
modifications: pHrodo iFL Red dye conjugated to the antibody; positions not given
notes: also called 1A3-pHrodo; 1A3 pHrodo
B2: GMF-1A3 rabbit monoclonal IgG antibody (antibody, V domains shown)
VH: B1 VH
VL: B1 VL
notes: also called anti-cleaved-AREG 1A3 antibody; unconjugated 1A3
B3: GMF-3E4 rabbit monoclonal IgG antibody (antibody, V domains shown)
VH: QSVKESEGRLVTPGTPLTLTCTVSGFSLSDYWMSWVRQAPGKGLEWIGIAGYSDNTYYASRAKGRFTISKTSTTVVLKITRPTTEDTATYFCVRDLYGVYSSGTTLWGPGTLVTVSS
VL: ELVMTQTPSPVSAAVGGTVTISCQSSQSVYNNNRLAWFQQKPGQPPKLLIYYASTLASGVSSRFKGSGSGTQFTLIISDVVCDDAATYYCQGYYSGGITGFGGGTEVVVK

Tests used:
[1] = target: T1, cleaved amphiregulin (cell-associated …); test: live-cell fluorescence imaging of MCF-7 cells with 1A3-pHrodo
Experimental: In order to study internalization, 1A3 was conjugated with pHrodo iFL Red dye using pHrodo iFL Red Microscale Protein Labeling Kit (P36014, Thermo Fisher Scientific). MCF7 cells were seeded in 12 mm Nunc Glass Bottom Dish, at a density of 1×10⁵ cells/dish. After allowing the cells to attach overnight, the cells were incubated for 60 min with […] Hoechst dye for nuclei staining and LysoTracker® Green DND-26 (Thermo Fisher Scientific) for lysosomal labeling. The cells were then incubated with 1A3-pHrodo (2 μg/mL) for 20 min at 37° C. After washing the wells with PBS, the cells were supplemented with 1× live-cell imaging solution (Molecular probes, Thermo Fisher Scientific). Fluorescence images were acquired at 30 min intervals for 2.5 h with the Olympus 1X71 inverted fluorescence microscope (Olympus, Shinjuku, Tokyo, Japan). TAPI-2 (20 μM)—pre-treatment was performed overnight, with DMSO serving as a control.

[2] = target: T2, peptide representing uncleaved AREG; test: ELISA on peptides representing cleaved and uncleaved AREG
[3] = target: T1, cleaved amphiregulin (cell-associated …); test: immunohistochemistry on a breast tumor tissue micro-array, 10 µg/mL antibody
Experimental: A breast disease spectrum tissue micro-array was purchased from US Biomax Inc. (Derwood, Md., USA). The slides were deparaffinized in xylene and rehydrated by serial incubations in graded ethanol and then in water in a Histo-Tek® SL Slide Stainer (Sakura Finetek USA, Inc., Torrance, Calif., USA). Antigen retrieval was performed in a steamer by boiling slides in a container of citrate buffer (pH 6.0) for 20 min, which was then removed for 15 min of cooling on the benchtop. Slides were washed in 1× Wash buffer (Dako Agilent, Santa Clara, Calif., USA) and endogenous peroxidase was quenched by incubating with Dako Dual Endogenous Enzyme Block (S2003) for 10 min. […] Slides were washed four times in 1× Wash buffer, followed by the incubation for 45 min at room temperature in 1:100 dilution of […] immunoglobulins/HRP (Dako, P0160 or ready-to-use goat anti-rabbit HRP labeled polymer (Dako, K4003). The slides were washed twice in 1× Wash buffer and the color was developed with 3,3-diaminobenzidine tetrahydrochloride substrate chromogen system (K3468, DAKO, Santa Clara, Calif., USA). Sections were washed with water and counterstained with hematoxylin, rinsed with water, dehydrated by serial ethanol washes to 100%, cleared and mounted in Permount (Thermo Fisher Scientific). […]

Row | binding result [1] | binding result [2] | binding result [3] | Binder
1 | binds | – | – | B1
2 | – | no binding | binds | B2
3 | – | no binding | – | B3

Reference: patent US20220411532A1 (GUNDERSEN LUTHERAN MEDICAL FOUNDATION, published 2022)
